Laboratory results: patent publication US20170152313A1 (Novartis, published 2017)

What was measured:
[1] = target: T1, Human LOX-1 full-length protein (human, UniProt P78380 1-273); test: cell-based or functional assay
[2] = target: T2, APP-Avi-soluble cynomolgus monkey LOX-1 (61-273) (cynomolgus monkey, biotinylated at the Avi tag when immobilised in the SET assay); test: solution equilibrium titration (SET), MSD read-out
T2 construct: Expressed and purified in the same way as the human protein; also called cynomolgus monkey soluble LOX-1; Cynomolgus Monkey Soluble APP-Avi-LOX-1
T2 sequence (chain, as listed by the source): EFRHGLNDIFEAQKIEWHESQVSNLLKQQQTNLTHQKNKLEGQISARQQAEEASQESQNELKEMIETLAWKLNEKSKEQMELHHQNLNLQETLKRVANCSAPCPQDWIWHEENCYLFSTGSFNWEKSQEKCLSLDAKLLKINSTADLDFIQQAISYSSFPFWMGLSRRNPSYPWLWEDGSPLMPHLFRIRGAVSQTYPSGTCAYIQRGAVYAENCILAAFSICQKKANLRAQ
Description: (§1) For humanized LOX-1 antibodies FF1, FF3, FF4, FF5, and FF6, the following solution equilibrium titration (SET) assay protocol was used to determine KD values. The assays were performed in a 96-well polypropylene plate (Thermo Scientific, Catalog no. AB-1127) as follows. A constant concentration of LOX-1 antibody (1 pM) was mixed with different concentrations of non-biotinylated human or cynomolgus monkey LOX-1 protein (3-fold serial dilution ranging from 1 nM to 0.017 pM) in SET buffer (PBS, pH 7.4 without CaCl₂ or MgCl₂, Gibco, catalog no. P7949; 0.5% w/v bovine serum albumin, fatty acid free, Calbiochem, catalog no. 26575; and 0.02% v/v Tween-20, Sigma, catalog no. P7949). The final reaction volume was […]. The plate was sealed using an adhesive film (WVR, catalog no. 60941-062) and incubated at 22° C. for 14 hours with constant shaking (300 rpm).
(§2) During the same period, a 384-well streptavidin-coated MSD plate (Meso Scale Discovery, catalog no. L21SA) was blocked by incubating the plate with 50 μL blocking buffer (PBS, pH 7.4, 5% w/v bovine serum albumuin) per well overnight at 4° C. The blocked MSD plate was then washed 3 times with wash buffer (PBS, pH 7.4 and 0.05% v/v Tween-20) using a plate washer (BioTek). Following washing, biotinylated human or cynomolgus monkey soluble LOX-1 protein (25 pM, 15 μL per well) was immobilized on the surface by incubation at 22° C. for one hour with constant shaking (600 rpm). The plate was then washed 3 times as described earlier. In some experiments, non-biotinylated soluble human LOX-1 protein was used (R&D systems, catalog no. 1798-LX-050) was used; in this case the LOX-1 protein was immobilized by overnight incubation at 1 nM concentration in a standard MSD plate (MSD, catalog no. L21XA). The equilibrium binding reactions (15 μL per well) were then applied to the MSD plate with immobilized LOX-1 and incubated for 30 min. The unbound material was removed by washing the plate, and the captured antibody was detected by adding 15 μL per well of a 1:500 dilution of Sulfa-tagged goat anti-human IgG (Mesa Scale Discovery, catalog no. R3AJ-1). The plate was then incubated for one hour with constant shaking (600 rpm). The plate was washed 3 times, and then […] 1×MSD read buffer T(Meso Scale Discovery, catalog no. R92TC-2) was added and the plate was developed using a Sector Imager 6000 (Mesa Scale Discovery).

[3] = target: Human Soluble His9-LOX-1 from R&D Systems (human, UniProt P78380 61-273); test: solution equilibrium titration (SET), MSD read-out
Description: as §1, §2

[4] = target: T1, Human LOX-1 full-length protein; test: flow cytometry, inhibition of dil-OxLDL binding to huLOX-1/HEK293 cells
Description: The huLOX-1/HEK293 cells were resuspended at 1×10⁶ cells/mL and seeded 50 μL per well into a 96-well V-bottom plate (5×10⁴ cells per well). LOX-1 or irrelevant control antibodies in assay medium (DMEM+10% FBS) were then added to the cells. Typical final antibody concentrations ranged from 0.006 μg/mL to 20 μg/mL. The cells were incubated at 37° C. for 1 hour, then washed twice with warm HBSS. Dil-oxLDL (human dil-labeled “High Oxidized” LDL, Kalen Biomedical, catalog number 770262-9; Dil is 1,1′-dioctadecyl-3,3,3′,3′-tetramethylindocarbocyanine perchlorate) in 50 ul assay medium was then added to a final concentration 30 to 100 μg/mL. The cells were then incubated at 37° C. for 2 hours, and then washed twice with FACS buffer (2% FBS in PBS). Cells were then analyzed for intensity of Di-I fluorescence by flow cytometry, as depicted in FIG. 2 and Table 3.

[5] = target: T1, Human LOX-1 full-length protein; test: flow cytometry, biotinylated antibody on primary human neutrophils, PE-streptavidin
Description: The resulting cell suspension was carefully transferred to a 50 mL conical tube containing 10 mL Ficoll-Paque, layering the cell suspension on top of the Ficoll-Paque, and the tube was then centrifuged at 1400 rpm (400×g) for 30 minutes at room temperature. The top layer was the discarded. To the resulting cell pellet, 10 mL 0.2% ice-cold sodium chloride was added, and the mixture was incubated for exactly 30 seconds to lyse red blood cells; 10 mL of ice-cold 1.6% sodium chloride was added to restore isotonicity. The cell suspension was then centrifuged at 1200 rpm ([…]) for 5 minutes. The supernantant was then discarded, and the red blood cell lysis procedure repeated once more. The resulting cell pellet was resuspended in FACS buffer (2 mM EDTA, 1% BSA, and 0.2% sodium azide in PBS) at a cell density of 2×10⁶ cells/mL.
The cell suspension containing freshly isolated human neutrophils was transferred (50 ul/well) to wells of a 96-well V-bottom plate (1×10⁵ cells/well) (Costar, catalog number 3894). Blocking buffer (4% normal rabbit serum diluted in FACS buffer (2 mM EDTA, 1% BSA, and 0.2% sodium azide in PBS) (50 ul/well) was added and the plate was incubated on ice for 30 minutes. Biotinylated LOX-1 antibody (10 μl) in FACS buffer was then added to the wells at final concentrations ranging from 1 ng/ml to 5 ug/mL, and the plate was incubated on ice for 30 minutes. The plate was then centrifuged at 1200 rpm (250-300×g) for 3 minutes and supernatant was discarded. The cells were then washed twice with 0.2 mL FACS buffer, and then 0.1 mL of PE-streptavidin (BD Pharmingen catalog number 554061) diluted at 1:250 in FACS buffer was added, and the plate incubated on ice for 30 minutes. The plate was then centrifuged again, supernatant discarded, and the cells washed twice with 0.2 mL FACS buffer. Cells were then resuspended in 0.1 mL of fixing buffer (FACS buffer with 2% paraformaldehyde) and analyzed using a FACS instrument. To determine an EC50 value for neutrophil binding by LOX-1 antibodies, the LOX-1 staining intensity determined by FACS was plotted vs. the concentration of the antibody as shown in FIG. 5 and Table 3.

[6] = target: T2, APP-Avi-soluble cynomolgus monkey LOX-1 …; test: SPR Biacore T200, antibody captured by anti-human IgG, cynomolgus soluble LOX-1 as analyte, 1:1 model
Description: Surface plasmon resonance measurements quantifying the interaction of humanized LOX-1 antibodies with human or cynomolgus monkey LOX-1 were done with the optical biosensor BIAcore T200 on a CM5 chip. Goat-anti-hlgG (gamma) (Invitrogen H10500) was coated at 3,000 RU on the CM5 chip in acetate buffer, pH 4.0. The running buffer used was PBS, pH 7.4 (filtered, degassed). Test antibodies were loaded into individual flow cells at a concentration of 1 ug/mL at a flow rate of 10 uL/min. The target number of IgG capture was between 20-30 RU, in HBS-EP buffer (0.01M HEPES, pH 7.4, 0.15M NaCl, 3 mM EDTA, 0.05% P20). Human or cynomolgus monkey soluble LOX-1 was diluted to a concentration of 33 nM in HBS-EP buffer, then diluted serially (1:3) down to a concentration of 0.137 nM. This represents six different concentrations of human or cynomolgus monkey LOX-1. The antigen was introduced into individual flow cells at a flow rate of 30 uL/min. Parameters for association time were set at 700 seconds and dissociation time was set at 5,400 seconds. Data were analyzed using buffer blanks, reference blank, and a 1:1 binding model for curve fitting in order to determine association and dissociation rate constants (ka and kd) and equilibrium binding constants (KD) (see results for FF1, FF3, FF4, FF5, and FF6 in Tables 7-8).

Row | Binder | Reactive oxygen species (ROS) generation in huLOX-1/HEK293 cells (IC50, nM) [1] [nM] | Kd [2] [nM] | Kd [3] [nM] | IC50 [4] [nM] | EC50 [5] [µg/mL] | Kd [6] [nM] | koff [6] [s⁻¹] | kon [6] [M⁻¹ s⁻¹]
1 | FF5 (antibody, human IgG1, kappa, L234A L235A, V domains shown, Humaneered variant of E2E10, tested as full human IgG; Biotinylated for the neutrophil assay; also called LLG787; LLG787 (FF5)) VH: QVQLVQSGAEVKKPGASVKVSCKASGYTFTDYEVHWVRQAPGQGLEWMGAIHPGSGGAAYVQKFQGRVTMTRDTSISTAYMELSRLRSDDTAVYYCARWLPMDYWGQGTLVTVSS VL: DIQMTQSPSSVSASVGDRVTITCRASQGINNWLVWYQQKPGKAPKLLLYAASRLESGVPSRFSGSGSGTDYTLTISSLQPEDIATYYCQQYLITPYTFGQGTKLEIKR | 4.8 | 0.0006 | 0.0008 | 4.1 | 0.08 | 0.035 | 4.8e-05 | 1.4e+06
2 | FF1 (antibody, human IgG1, kappa, L234A L235A, V domains shown, Humaneered variant of E2E10, tested as full human IgG (captured or detected with anti-human IgG); Biotinylated for the neutrophil assay; also called LLG783; LLG783 (FF1)) VH: QVQLVQSGAEVKKPGASVKVSCKASGYTFTDYEVHWVRQAPGQGLEWMGAIHPGSGGAAYVQKFQGRVTMTRDTSTSTAYMELSSLRSDDTAVYYCARWLPMDYWGQGTLVTVSS VL: DIQMTQSPSSVSASVGDRVTITCRASQGINNWLVWYQQKPGKAPKLLIYAASSLQSGVPSRFSGSGSGADYTLTISSLQPEDFATYYCQQYLITPYTFGQGTKLEIKR | 6 | 0.0018 | 0.0031 | 5.5 | 0.15 | 0.012 | 1.3e-05 | 1.1e+06

The remaining lines, values ahead:

Row | Reactive oxygen species (ROS) generation in huLOX-1/HEK293 cells (IC50, nM) [1] [nM] | Kd [2] [nM] | Kd [3] [nM] | IC50 [4] [nM] | EC50 [5] [µg/mL] | Kd [6] [nM] | koff [6] [s⁻¹] | kon [6] [M⁻¹ s⁻¹] | Binder
3 | 5.3 | 0.0007 | 0.0007 | 5 | 0.23 | 0.001 | 2.6e-06 | 2.1e+06 | FF4 (antibody, human IgG1, kappa, L234A L235A, V domains shown, Humaneered variant of E2E10, tested as full human IgG; the text and claims pair heavy chain 56 with light chain 66; Biotinylated for the neutrophil assay; also called LLG786; LLG786 (FF4)) VH: QVQLVQSGAEVKKPGASVKVSCKASGYTFTDYEVHWVRQAPGQGLEWMGAIHPGSGGAAYVQKFQGRVTMTRDTSISTAYMELSRLRSDDTAVYYCARWLPMDYWGQGTLVTVSS VL: DIQMTQSPSSVSASVGDRVTITCRASQGITNWLAWYQQKPGKAPKLLIYAASILESGVPSRFSGSGSGTDYTLTISSLQPEDIATYYCQQYLITPYTFGQGTKLEIKR
4 | 7.4 | 0.0034 | 0.0023 | 3.3 | 0.13 | 0.023 | 1.7e-05 | 770000 | FF3 (antibody, human IgG1, kappa, L234A L235A, V domains shown, Humaneered variant of E2E10, tested as full human IgG; Biotinylated for the neutrophil assay; also called LLG785; LLG785 (FF3)) VH: QVQLVQSGAEVKKPGASVKVSCKASGYTFTDYEVHWVRQAPGQGLEWMGAIHPGSGGAAYVQKFQGRVTMTRDTSISTAYMELSRLRSDDTAVYYCARWLPMDYWGQGTLVTVSS VL: DIQMTQSPSSVSASVGDRVTITCRASQGINNWLVWYQQKPGKAPKLLIYAASSLQSGVPSRFSGSGSGADYTLTISSLQPEDFATYYCQQYLITPYTFGQGTKLEIKR
5 | 7.9 | 0.0016 | 0.002 | 5.9 | 0.28 | 0.053 | 5e-05 | 950000 | FF6 (antibody, human IgG1, kappa, L234A L235A, V domains shown, Humaneered variant of E2E10, tested as full human IgG; Biotinylated for the neutrophil assay; also called LLG788; LLG788 (FF6)) VH: QVQLVQSGAEVKKPGASVKVSCKASGYTFTDYEVHWVRQAPGQGLEWMGAIHPGSGGAAYVQKFQGRVTMTRDTSISTAYMELSRLRSDDTAVYYCARWLPIDYWGQGTLVTVSS VL: DIQMTQSPSSVSASVGDRVTITCRASQGINNWLVWYQQKPGKAPKLLLYAASRLESGVPSRFSGSGSGTDYTLTISSLQPEDIATYYCQQYLITPYTFGQGTKLEIKR
